Target: the molecule itself
Assay: HP-SEC, self-association
Method: To determine the molecular weight of the IL4-IL10 fusion protein, a High Performance Size Exclusion Chromatography (HP-SEC) assay was performed. The gel filtration (BioSuite 125 4 μm UHR SEC Column; Waters; Cat #186002161) was performed on a High-Performance Liquid Chromatography System (Shimadzu) with 50 mM phosphate buffer containing 0.5 M NaCl as mobile phase. The column was calibrated prior to the run using a protein mix of thyroglobulin, bovine serum albumen, carbonic anhydrase, myoglobulin, and ribonuclease. The IL4-IL10 fusion protein purified by cation exchange was obtained by pooling and concentrating the chromatography fractions with the highest IL4-IL10 fusion protein content (2 ml of pooled fractions was concentrated to 100 μl, containing 2 μg of IL4-IL10 fusion protein). Fifty μl of 20 μg/ml of pooled IL4-IL10 fusion protein was injected and ran trough the column at a flow rate of 0.35 ml/min and under a pressure of 35 bar. Fractions of 175 μl were collected and the IL4 and IL10 content was measured in the above described IL4 and IL10 ELISA (1/500 dilution). Similar runs with recombinant human IL4 (Sigma, Cat #14269) and recombinant human IL10 (Sigma, Cat #19276) were performed to compare the molecular size of the IL4-IL10 fusion protein with that of the wild-type cytokines.

B1: IL4-IL10 fusion protein (other)
chain: HKCDITLQEIIKTLNSLTEQKTLCTELTVTDIFAASKNTTEKETFCRAATVLRQFYSHHEKDTRCLGATAQQFHRHKQLIRFLKRLDRNLWGLAGLNSCPVKEANQSTLENFLERLKTIMREKYSKCSSGSGGGGSGTSPGQGTQSENSCTHFPGNLPNMLRDLRDAFSRVKTFFQMKDQLDNLLLKESLLEDFKGYLGCQALSEMIQFYLEEVMPQAENQDPDIKAHVNSLGENLKTLRLRLRRCHRFLPCENKSKAVEQVKNAFNKLQEKGIYKAMSEFDIFINYIEAYMTMKIRN
modifications: glycosylated (two glycoforms on the blot, one band after PNGaseF); made with co-transfected sialyltransferase to cap the glycans with sialic acid; sites not stated
notes: On the Western blot it was reduced and denatured; also called IL4-10 fusion protein; IL4-IL10 protein
- binding result: binds

B2: recombinant human IL10 (Sigma, Cat #19276) (ligand, UniProt P22301 19-178, looked up)
chain: SPGQGTQSENSCTHFPGNLPNMLRDLRDAFSRVKTFFQMKDQLDNLLLKESLLEDFKGYLGCQALSEMIQFYLEEVMPQAENQDPDIKAHVNSLGENLKTLRLRLRRCHRFLPCENKSKAVEQVKNAFNKLQEKGIYKAMSEFDIFINYIEAYMTMKIRN
notes: also called recombinant IL10; wild-type IL10
- binding result: binds

Source: patent US20200147178A1 (SYNERKINE PHARMA B V, published 2020)
